Test in all cases: potentiometry
Data set [1] has as its target Asp127. Conditions: 298 K; 0.1 M NaClO4; none (HClO4-acidified solution titrated with 0.1 M carbonate-free NaOH under argon); free (apo) peptide.
Data set [2] has as its target Cys143. As to conditions: 298 K, 0.1 M NaClO4, none (HClO4-acidified solution titrated with 0.1 M carbonate-free NaOH under argon).
Data set [3] addresses His323. Conditions: 298 K, 0.1 M NaClO4, none (HClO4-acidified solution titrated with 0.1 M carbonate-free NaOH under argon).
Data set [4] concerns the target Lys70. As to conditions: 298 K, 0.1 M NaClO4, none (HClO4-acidified solution titrated with 0.1 M carbonate-free NaOH under argon).
[5] abbreviates: Cu(II)-bound, mononuclear 1:1 complex.

A word on the pKa: it is the pH at which an ionisable group is half protonated. GMMGMHQGHGMMAMD returned a pKa in data set [1] of 3.80.

Turning to GACPNRMDAAAAAAAADHIMD, the pKa came out at 7.49 in data set [2] (setting [5]), 9.56 in data set [2] (free (apo) peptide), 5.05 in data set [3] (setting [5]) and 6.92 in data set [3] (free (apo) peptide).

As for EMMTPHHQDAIDMAEMALQKAEHPE, the pKa in data set [4] (setting [5]) was 9.56; in data set [4] (free (apo) peptide), 9.94.

The record behind these values is PMC11836926.
